The record followed here is patent US5106621A, “Cysteine proteinases, production and use” (priority 1987, dated 1992).

What all share (type): biochemical, Ananas comosus
Substrate in series [1]: Cc1cc(=O)oc2cc(NC(=O)[C@H](CCCNC(=N)N)NC(=O)[C@H](Cc3ccccc3)NC(=O)OCc3ccccc3)ccc12
Kind of series: Kinetics of hydrolysis of fluorimetric substrates by ananain. The settings on record: other: ananain, 40° C., pH 6.8 buffer, 0.007% Brij 35, substrate 2 to 100 μM, spread = standard deviation. Here is the method:
(§1) used for this example was obtained by the method described in Example 1: the bromelain used was as in Example 4. For the determination of kinetic parameters Km (the Michaelis Constant) and kcat (the turnover number) of hydrolysis of Z-Phe-Arg-NHMec and Z-Arg-Arg-NHMec, measurements of the initial rates of reaction were made in 0.007% Brij 35 at 40° C. The enzymes (1×10^-11 M to 1×10^-9 M final concentration of activatable enzyme as determined by active-site titration) were activated in 0.75 ml of 4-fold concentrated buffer in a fluorimetric cuvette at 40° C. for 2 min, to which pre-warmed 0.01% Brij was added, followed by substrate to a final volume of 3.0 ml. Continuous rate assays were carried out using a temperature-controlled cell, with stirring, in the fluorimeter ([…]), standardized so that 1000 arbitrary units corresponded to 0.2 μM coumarin (i.e. at most, 10% substrate hydrolysis). Substrate concentration(s) used were in the range 2 to 100 μM. Visual inspection of the data was performed using the direct linear plot and plots of s/v against s (v being the rate of product formation). (Henderson, P. J. F., Techniques in Protein and Enzyme Biochemistry, B113, 1-43, 1978). Values of Km and Vmax (the maximum rate of product formation at a given enzyme concentration) were calculated by the method of Wilkinson, G. N., Biochem. J., 80, 324-332, 1961.

Substrate in series [2]: Cc1cc(=O)oc2cc(NC(=O)[C@H](CCCNC(=N)N)NC(=O)[C@H](CCCNC(=N)N)NC(=O)OCc3ccccc3)ccc12
The series is described as above. Conditions: other: ananain, 40° C., pH 6.8 buffer, 0.007% Brij 35, substrate 2 to 100 μM, spread = standard deviation. On the procedure:
as §1

Substrate in series [3]: Cc1cc(=O)oc2cc(NC(=O)[C@H](CCCNC(=N)N)NC(=O)[C@H](Cc3ccccc3)NC(=O)OCc3ccccc3)ccc12
In words: Kinetics of hydrolysis of fluorimetric substrates by bromelain. The settings on record: other: bromelain, 40° C., pH 6.8 buffer, 0.007% Brij 35, substrate 2 to 100 μM, spread = standard deviation. Here is the method: (§2) The enzymes used were affinity purified ananain and comosain (Examples 1 and 2) and bromelain, which was obtained from chromatography-purified Sigma bromelain (catalogue number B 5144) by affinity chromatography on a column of Sepharose-aminohexanoyl-Gly-Phe-Gly-semicarbazide, followed by dialysis into 1 mM EDTA and lyophilisation. The proteinases were standardised by E-64 titration as described in Example 8.
(§3) Ananain used for this example was obtained by the method described in Example 1: the bromelain used was as in Example 4.
as §1, with “For” for “used for this example was obtained by the method described in Example 1: the bromelain used was as in Example 4. For”

Substrate in series [4]: Cc1cc(=O)oc2cc(NC(=O)[C@H](CCCNC(=N)N)NC(=O)[C@H](CCCNC(=N)N)NC(=O)OCc3ccccc3)ccc12
The description is as above. Conditions: other: bromelain, 40° C., pH 6.8 buffer, 0.007% Brij 35, substrate 2 to 100 μM, spread = standard deviation. On the procedure:
as §2, §3
as §1, with “For” for “used for this example was obtained by the method described in Example 1: the bromelain used was as in Example 4. For”

B1: ananain, cysteine proteinase purified from pineapple (Ananas comosus) stem extract (Ananas comosus) (protein)
chain: VPQSIDWRDSGAVTSVKNQGRCGSCWAFASIATVESIYKIKRGNLVSLSEQQVLDCAVSYGCKGGWINKAYSFIISNKGVASAAIYPYKAAKGTCKTNGVPNSAYITRYTYVQRNNERNMMYAVSNQPIAAALDASGNFQHYKRGVFTGPCGTRLNHAIVIIGYGQDSSGKKFWIVRNSWGAGWGEGGYIRLARDVSSSFGLCGIAMDPLYPTLQS
notes: from tissue; host or cells: pineapple stem extract (from the earlier reading)
Consider B1, for which, in series [1], the Km was 48.3 (±4.8) μM, the kcat is on record as 7.07 (±0.3) s^-1 and the kcat/Km was 0.146 (±0.02) s^-1 · μM^-1. Moreover, in series [2], the Km was 44.5 (±9.0) μM, the kcat is reported as 0.323 (±0.03) s^-1 and the kcat/Km is reported as 0.007 (±0.002) s^-1 · μM^-1.

B2: bromelain (stem bromelain, EC 3.4.22.4), affinity purified from Sigma bromelain, pineapple (Ananas comosus) stem (Ananas comosus) (protein)
chain: AVPQSIDWRDYGAVTSVKNQNPCGACWAFAAIATVESIYKIKKGILEPLSEQQVLDCAKGYGCKGGWEFRAFEFIISNKGVASGAIYPYKAAKGTCKTDGVPNSAYITGYARVPRNNESSMMYAVSKQPITVAVDANANFQYYKSGVFNGPCGTSLNHAVTAIGYGQDSIIYPKKWGAKWGEAGYIRMARDVSSSSGICGIAIDPLYPTLEE
notes: purchased Sigma B 5144
Consider B2, for which, in series [3], the Km is 83.1 (±14.1) μM, the kcat is listed as 0.14 (±0.01) s^-1 and the kcat/Km is 0.0016 (±0.0003) s^-1 · μM^-1. Also, in series [4], the Km is 15.4 (±2.8) μM, the kcat is listed as 27.3 (±1.9) s^-1 and the kcat/Km is listed as 1.77 (±0.37) s^-1 · μM^-1.
